Consider 1 molecule from paper PMC5473146.

The target of one data set is MBP-DDX5-GST (Homo sapiens, UniProt P17844 1-614). Kind of data set: fluorescence anisotropy. A general note: Fluorescence polarisation rises when a labelled molecule tumbles more slowly, as on binding a larger partner.
The next data set addresses Dbp2 (Saccharomyces cerevisiae, UniProt P24783 1-546). In words: fluorescence anisotropy.

Dbp2, sequence (P24783 whole entry): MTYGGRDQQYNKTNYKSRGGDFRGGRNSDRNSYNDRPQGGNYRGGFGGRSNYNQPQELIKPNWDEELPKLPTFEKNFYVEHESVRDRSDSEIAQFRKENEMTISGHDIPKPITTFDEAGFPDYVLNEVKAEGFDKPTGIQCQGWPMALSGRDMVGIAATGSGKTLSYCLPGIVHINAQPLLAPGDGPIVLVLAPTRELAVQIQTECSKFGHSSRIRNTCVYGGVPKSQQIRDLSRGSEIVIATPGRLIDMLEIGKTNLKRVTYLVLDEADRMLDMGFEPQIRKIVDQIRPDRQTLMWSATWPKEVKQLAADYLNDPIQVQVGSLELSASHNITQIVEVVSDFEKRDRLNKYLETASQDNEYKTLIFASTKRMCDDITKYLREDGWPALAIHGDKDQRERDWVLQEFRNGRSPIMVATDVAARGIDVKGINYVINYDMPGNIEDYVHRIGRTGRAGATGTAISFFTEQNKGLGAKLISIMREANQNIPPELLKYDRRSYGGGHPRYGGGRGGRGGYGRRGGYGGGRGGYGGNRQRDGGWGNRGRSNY
MBP-DDX5-GST, sequence (P17844 whole entry): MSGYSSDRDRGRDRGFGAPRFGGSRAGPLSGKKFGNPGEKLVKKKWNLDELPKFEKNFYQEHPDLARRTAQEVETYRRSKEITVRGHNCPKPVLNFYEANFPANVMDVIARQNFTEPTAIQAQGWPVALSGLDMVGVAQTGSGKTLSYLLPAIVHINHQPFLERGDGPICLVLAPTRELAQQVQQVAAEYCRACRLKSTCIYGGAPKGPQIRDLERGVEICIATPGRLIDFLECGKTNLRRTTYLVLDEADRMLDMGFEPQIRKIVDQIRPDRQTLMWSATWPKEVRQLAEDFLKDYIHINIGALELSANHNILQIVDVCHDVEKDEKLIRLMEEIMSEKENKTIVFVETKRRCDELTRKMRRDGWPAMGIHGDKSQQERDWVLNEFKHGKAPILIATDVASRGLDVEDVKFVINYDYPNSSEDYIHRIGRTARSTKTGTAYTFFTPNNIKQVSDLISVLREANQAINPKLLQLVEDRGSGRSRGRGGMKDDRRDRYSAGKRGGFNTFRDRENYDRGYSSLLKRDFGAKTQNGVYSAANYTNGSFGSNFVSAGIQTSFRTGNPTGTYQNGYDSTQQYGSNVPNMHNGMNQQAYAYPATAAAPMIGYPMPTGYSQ

B1: 16-nt ssRNA (6-FAM) (ssRNA)
RNA: AGCACCGUAAAGACGC
As to B1, the binding signal with MBP-DDX5-GST was approximately 4 fold tighter than Dbp2; in the data set with Dbp2 it was ~4 fold weaker than MBP-DDX5-GST.
